Experimental data: the RNAGym collection of RNA variant scans (doi:10.1073/pnas.2313332121)
This sample holds only a part of the variants without activity.

B1: TPR 5TU (parent)
chain: GGAUCUUCUCGAUCUAACAAAAAAGACAAAUCUGCCACAAAGCUUGAGAGCAUCUUCGGAUGCAGAGGCGGCAGCCUUCGGUGGCGCGAUAGCGCCAACGUUCUCAACUAUGACACGCAAAACGCGUGCUCCGUUGAAUGGAGUUUAUCAUG

Variants of: B1
Assay: polymerase ribozyme fitness, log enrichment relative to wild type (log ratio); higher = more active; in vitro selection for triplet polymerase activity
How it was run: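 PCR was used to build mutant libraries for each subunit of a heterodimeric triplet polymerase ribozyme, which were then transcribed. A single in vitro selection round, in triplicate, used a frozen incubation at −7 °C and recovered extended constructs by gel excision, streptavidin beads and RT-PCR. Fitness is the logarithm of genotype enrichment relative to wild-type enrichment, averaged over replicates with inverse-variance weights. The logarithm is base 2, and after Illumina sequencing only genotypes with ≥10 input reads and ≥1 read per output were kept.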

Row | Variant | polymerase ribozyme fitness (log ratio)
1 | A22U G83C | -1.73
2 | A49C A52G C85U U101G U127G U144G | ≤ -4.2
3 | A89U A150G | -0.42
4 | G62A C85A U151C | ≤ -4.2
5 | C14G U55G C57U G86C C125G A137U | ≤ -4.2
6 | C57A C96U G124A A150C | -3.99
7 | G84U A120G | -2.16
8 | G59C A64U C75U C132U | ≤ -4.2
9 | C69G C76G C96A A138G | ≤ -4.2
10 | C35A C76A C93A U148C | ≤ -4.2
11 | C5G A91U | ≤ -4.2
12 | U55G U56A G68A C96U | ≤ -4.2
13 | C5G A28G A30C C36U A47U C57U C85A A91U C118U A120G C125G A142G | ≤ -4.2
14 | G70C G126U G152A | -3.99
15 | A23U C43U G59C A60G G94C | ≤ -4.2
16 | A20C U33A C43U G88U G92A A115C G126A C132U A147C | ≤ -4.2
17 | U31C C36A C96U A150G | ≤ -4.2
18 | A21U C93G | -2.5
19 | C8G G11U U31A U90G A137C A150U | -4.16
20 | A40C A122G | 0.759
21 | G11A A113U | -2.69
22 | C27U C75A G81A G92A U135A | ≤ -4.2
23 | A37G G58C C85A | -3.83
24 | U31C G83C G140C | -4.18

Row | Variant | polymerase ribozyme fitness (log ratio)
25 | A23C G59A G92U U104C A113C C123U G124A | ≤ -4.2
26 | U33A G50C G81A C93G C96U A98G C103G G152U | ≤ -4.2
27 | A24C G86U U90A U101A A106G A113U A120U G126A | ≤ -4.2
28 | C14G A23G A73G G84U A122U | ≤ -4.2
29 | A37G C95U | -2.43
30 | A29C A49C C57G C132U | ≤ -4.2
31 | U4C C5G A20U | -1.25
32 | A64G A137G | ≤ -4.2
33 | A21G G50C C93U C118U A138U U145A | ≤ -4.2
34 | U7A A23C G50U G59A A73C G86U C95G C108U | ≤ -4.2
35 | C54U A91G G128U C131U | -3.53
36 | A39G C54A A91G G94A | ≤ -4.2
37 | C36U A52G U61A C95A A122U U144A | ≤ -4.2
38 | U31C C35U G68C G92U U104A A115U A119C G143A | ≤ -4.2
39 | C75U A91G | -3.07
40 | C38G A142C | -1.24
41 | A40C C76U C93G G152A | ≤ -4.2
42 | A16G U134A | -3.15
43 | A20G C76A U90G A97G G136C | ≤ -4.2
44 | C57U G84C C95A C116G G136U A138C | -4.17
45 | C69G G88A U90G U146A | ≤ -4.2
46 | G50C C118G G140A | ≤ -4.2
47 | A47C G59C G86A | ≤ -4.2
48 | C38U G86U | -1.57

Row | Variant | polymerase ribozyme fitness (log ratio)
49 | U7A U55A | -3.25
50 | A30G U56A C85G C132U | ≤ -4.2
51 | U53G G80C | -4.15
52 | C131G A137U | -4.16
53 | U9A | -2.7
54 | C43U A73G C79A U134A | ≤ -4.2
55 | G84A G136A | -0.313
56 | G83U C87U | -1.25
57 | A19U A47G U53G G67C C99U A142C A147C | ≤ -4.2
58 | A52U A91U U139G U144A | ≤ -4.2
59 | A41C A91C C118A C125A A150U | ≤ -4.2
60 | A122G G133U | -3.59
61 | A97G U130G | -2.77
62 | G62C C85A C99G U151G | ≤ -4.2
63 | G46U G59A A60C | -2.54
64 | A3U G48A A89G C95A U102G | ≤ -4.2
65 | A22U A28U C57U U77G C85G G92U | ≤ -4.2
66 | G50C C125A | -2.76
67 | U55G G143C | -2.79
68 | C35U U55A C96U | -0.218
69 | A19U C85G | -2.18
70 | U7G A23C A24U C54G | ≤ -4.2
71 | C51G A106G | -3.04
72 | A37C A49G C93U | -2.86

Row | Variant | polymerase ribozyme fitness (log ratio)
73 | C5U A28U A40U C57U G83C A89G | ≤ -4.2
74 | U45A C85U | -3.1
75 | U15C C51A G86U | -1.6
76 | G48A G84A A107C C118G | ≤ -4.2
77 | A37G U44A A52C G86U C95U U101G U144C | ≤ -4.2
78 | C87G C105U A137C A150U | ≤ -4.2
79 | C8G A16U C79G G141A | ≤ -4.2
80 | C43U G81C G88A G133C | ≤ -4.2
81 | A41C C57U A89U G92C C116G C125A | ≤ -4.2
82 | C32U G84A | -2.55
83 | C10A G84U | ≤ -4.2
84 | C38A C54A C63U G70U C75U C87A | ≤ -4.2
85 | C8A C14U C54A C99A | ≤ -4.2
86 | A21U C32G G50A G83A G136A | ≤ -4.2
87 | G58A C75U A91G C95G | ≤ -4.2
88 | U61A C105U | -1.02
89 | A24C U31A A52G | -3.62
90 | A142C U144A U148G | ≤ -4.2
91 | G11A U55A U101G | -1.01
92 | A52C U53A G86A C87U C105A A106U | ≤ -4.2
93 | C85U A98C G124C | -1.37
94 | A17G G92A A120G A122G C125A | ≤ -4.2
95 | U6G U7C U55A U135A | -4.01
96 | U6A U44G A98U A107U | -1.58

Row | Variant | polymerase ribozyme fitness (log ratio)
97 | C85U G133U | -2.28
98 | G58C U82G C132A | -2.83
99 | U13C A19C A89U C95U U146G A150U | -2.94
100 | U53G C54U C96U A98G G133C G141U | -4.03
101 | A73G C87U | -1.55
102 | U9C G25C U56A C93U C99G | ≤ -4.2
103 | A40U C54A C87U A89C | -2.61
104 | A37C C95A A138C G141C | ≤ -4.2
105 | A28U C54U C63U G71U C108U C114U A137U U139G A150G | ≤ -4.2
106 | A30G A60G C93A C105G C132A A142U | ≤ -4.2
107 | A60C C63U U77C G128U A150G G152A | ≤ -4.2
108 | C69U G128C U130C C132G U135A A138C | ≤ -4.2
109 | A40G G48C A49C | ≤ -4.2
110 | G25U A39U U55A U102C U109G C114U A120U A122G U144G | ≤ -4.2
111 | A138C U139A | -3.78
112 | G83A G141U | -0.659
113 | C18U A37U U55A G86A | -3.67
114 | A66U G68C C105A | ≤ -4.2
115 | G46A G68C A89C G124A | ≤ -4.2
116 | C32A C87U | -3.44
117 | U56A G94U C95A G143U | -3.39
118 | U61A C75G | -3.89
119 | G62A A64U C69U C76U G84A C105G C116G | ≤ -4.2
120 | C96A U148A | -3.15

Row | Variant | polymerase ribozyme fitness (log ratio)
121 | A26C C38U C69A U77G G88U | ≤ -4.2
122 | A23U U45C A66G C85U | ≤ -4.2
123 | C63G A64C C72U C95U C105G A120U G141U | ≤ -4.2
124 | A30G G48A G80U G88U U109C | ≤ -4.2
125 | G42C A47C C57U G81C C95A | ≤ -4.2
126 | C8U C75A G86U A91U A122G G136A | ≤ -4.2
127 | A23C A24C U61G A110U | ≤ -4.2
128 | C32U C36U G68A G83U | ≤ -4.2
129 | G59C U82G C85A U102G | -4.09
130 | C96G A97U | -1.83
131 | G42A U56A A60U C76A C96A U102G U127A G141U A150G | ≤ -4.2
132 | C51U C85U C96G A119C G141A | -2.65
133 | A3U A47C C57A | -0.307
134 | U6A A16U A107C C131G | ≤ -4.2
135 | G92C U111C | -3.45
136 | C14U A138C | -3.75
137 | U56A C57U G83A | 0.0377
138 | A41C G50C G84A | ≤ -4.2
139 | C14U C18G C32G A66C C93U A98U | ≤ -4.2
140 | A40C C54A A89U G94U | -2.57
141 | C14G A16G A22C A60U C87U C93U A121C | ≤ -4.2
142 | C72U G86A C95A A97G A98U U104A A122U | ≤ -4.2
143 | A21C C36G A41C C72U A73U U78G C96U C118U G128A A142U | ≤ -4.2
144 | G84A A110U | -3.36

Row | Variant | polymerase ribozyme fitness (log ratio)
145 | G48A C85A A89U A98U A113G G117A | ≤ -4.2
146 | U6G A22C C35A G58C G74U C76U U78C G133U U151C | ≤ -4.2
147 | A73C G81C A110G A121G | ≤ -4.2
148 | C54U C93U | -1.99
149 | C27U U53A U61A C69G G88C | ≤ -4.2
150 | U56G C114U | -1.85
151 | C8A G58C | -4.1
152 | G50U A60U | -0.536
153 | A3C U7G C87U C93G A98G G100U A120C U148A U151G | ≤ -4.2
154 | A30U G86A | -3.95
155 | G34A U55A C69A C76U G80C C87G A89C A107C C116U | ≤ -4.2
156 | C93U C105U | -2.55
157 | C76U C87U G140U U146C | -3.72
158 | G11C A66U C96A C108G | ≤ -4.2
159 | C38G C85U A89C | -1.86
160 | A12C G81A G92C C99U G124C G133U | ≤ -4.2
161 | G58C G62C C95G | -3.72
162 | C18U A22U C43U C95U U101G G136A A138U | ≤ -4.2
163 | U7G U45A C57U C76A G83A G84A | ≤ -4.2
164 | A49U C57A G81A A98C U148G | ≤ -4.2
165 | A24C A30U A138U U144G | ≤ -4.2
166 | C27U G58A C96U C116U C118G U144G | -0.836
167 | A49C G50C G67C C72G G84A C108A A142G A147U | ≤ -4.2
